How the values were obtained:
Conditions in all cases: both partners purified
[1] = target: T1, Skeletal actin, filamentous (F-actin) (rabbit, UniProt P68135 1-377); test: co-sedimentation; high-speed co-sedimentation (300,000 g, 30 min, 25 °C), 2 uM ABD1 with 0-125 uM F-actin, 10 mM HEPES pH 8.0, 30 mM KCl, 2 mM MgCl2, 0.5 mM EGTA; fraction depleted from the supernatant fit to a binding curve
[2] = target: T1, Skeletal actin, filamentous (F-actin); test: co-sedimentation; high-speed co-sedimentation (300,000 g, 30 min, 25 °C), 2 uM ABD1 with 0-125 uM F-actin, 10 mM HEPES pH 7.0, 30 mM KCl, 2 mM MgCl2, 0.5 mM EGTA; fraction depleted from the supernatant fit to a binding curve
[3] = target: T1, Skeletal actin, filamentous (F-actin); test: co-sedimentation; high-speed co-sedimentation (300,000 g, 30 min, 25 °C), 5 uM PLS2 with 0-100 uM F-actin, 10 mM HEPES pH 8.0, 30 mM KCl, 2 mM MgCl2, 0.5 mM EGTA; fraction of PLS2 in the pellet fit to a binding curve
[4] = target: T1, Skeletal actin, filamentous (F-actin); test: co-sedimentation; high-speed co-sedimentation (300,000 g, 30 min, 25 °C), 5 uM PLS2 with 0-100 uM F-actin, 10 mM HEPES pH 7.0, 30 mM KCl, 2 mM MgCl2, 0.5 mM EGTA; fraction of PLS2 in the pellet fit to a binding curve

Row | Kd [1] [µM] | Kd [2] [µM] | Kd [3] [µM] | Kd [4] [µM] | Binder
1 | 13.9 | 24.7 |  |  | PLS2 ABD1 (a.a. 120-385) (domain or fragment, source: E. coli BL21-CodonPlus(DE3)pLysS, purified (IMAC on cobalt resin, TEV cleavage, Superdex 200); not shown: His6, N-terminal, cleaved) EEEKYAFVNWINKALENDPDCRHVIPMNPNTNDLFNAVGDGIVLCKMINLSVPDTIDERTINKKKLTPFTIQENLNLALNSASAIGCHVVNIGAEDLKEGKPYLVLGLLWQVIKIGLFADIELSRNEALIALLREGESLEDLMKLSPEELLLRWANYHLENAGCNKIGNFSTDIKDSKAYYHLLEQVAPKGDEEGVPAVVIDMSGLREKDDIQRAECMLQQAERLGCRQFVTATDVVRGNPKLNLAFIANLFNRYPALHKPENQDI
2 |  |  | 17.7 | 31.7 | plastin 2 (PLS2), full-length (natural protein, plastin 2 (PLS2, L-plastin, LCP1), human, full-length (FL) protein; Cloned in pColdI behind a 6xHis tag and TEV site; also called LCP1; L-plastin; source: E. coli BL21-CodonPlus(DE3)pLysS, purified (IMAC on cobalt resin, TEV cleavage, Superdex 200); not shown: His6, N-terminal, cleaved) MARGSVSDEEMMELREAFAKVDTDGNGYISFNELNDLFKAACLPLPGYRVREITENLMATGDLDQDGRISFDEFIKIFHGLKSTDVAKTFRKAINKKEGICAIGGTSEQSSVGTQHSYSEEEKYAFVNWINKALENDPDCRHVIPMNPNTNDLFNAVGDGIVLCKMINLSVPDTIDERTINKKKLTPFTIQENLNLALNSASAIGCHVVNIGAEDLKEGKPYLVLGLLWQVIKIGLFADIELSRNEALIALLREGESLEDLMKLSPEELLLRWANYHLENAGCNKIGNFSTDIKDSKAYYHLLEQVAPKGDEEGVPAVVIDMSGLREKDDIQRAECMLQQAERLGCRQFVTATDVVRGNPKLNLAFIANLFNRYPALHKPENQDIDWGALEGETREERTFRNWMNSLGVNPRVNHLYSDLSDALVIFQLYEKIKVPVDWNRVNKPPYPKLGGNMKKLENCNYAVELGKNQAKFSLVGIGGQDLNEGNRTLTLALIWQLMRRYTLNILEEIGGGQKVNDDIIVNWVNETLREAKKSSSISSFKDPKISTSLPVLDLIDAIQPGSINYDLLKTENLNDDEKLNNAKYAISMARKIGARVYALPEDLVEVNPKMVMTVFACLMGKGMKRV
